Patent publication US20170362301A1 (Janssen / Centocor, published 2017)

Legend:
[1] = target: T1, EGFR (form in the assay not stated) (human, UniProt P00533 25-645, limits assumed); test: ELISA, NEM conjugate 10 nM
[2] = target: T1, EGFR (form in the assay not stated); test: ELISA, NEM conjugate 100 nM
[3] = target: T1, EGFR (form in the assay not stated); test: ELISA, NEM conjugate 500 nM

Binder	binding ratio vs parent P54AR4-83v2 [1] [ratio]	binding ratio vs parent P54AR4-83v2 [2] [ratio]	binding ratio vs parent P54AR4-83v2 [3] [ratio]
P54AR4-83v2 G73C, NEM conjugate (designed binder, NEM on Cys 73, His-tagged) LPAPKNLVVSEVTEDSARLSWDDPWAFYESFLIQYQESEKVGEAIVLTVPGSERSYDLTGLKPGTEYTVSIYCVHNVYKDTNMRGLPLSAIFTT	0	0.02	0.21
P54AR4-83v2 L7C, NEM conjugate (designed binder, NEM on Cys 7, His-tagged) LPAPKNCVVSEVTEDSARLSWDDPWAFYESFLIQYQESEKVGEAIVLTVPGSERSYDLTGLKPGTEYTVSIYGVHNVYKDTNMRGLPLSAIFTT	0.35	1	0.9
P54AR4-83v2 G85C, NEM conjugate (designed binder, NEM on Cys 85, His-tagged) LPAPKNLVVSEVTEDSARLSWDDPWAFYESFLIQYQESEKVGEAIVLTVPGSERSYDLTGLKPGTEYTVSIYGVHNVYKDTNMRCLPLSAIFTT	0.19	0.02	0.29
P54AR4-83v2 L47C, NEM conjugate (designed binder, NEM on Cys 47, His-tagged) LPAPKNLVVSEVTEDSARLSWDDPWAFYESFLIQYQESEKVGEAIVCTVPGSERSYDLTGLKPGTEYTVSIYGVHNVYKDTNMRGLPLSAIFTT	0.92	1.02	0.91
P54AR4-83v2 L88C, NEM conjugate (designed binder, NEM on Cys 88, His-tagged) LPAPKNLVVSEVTEDSARLSWDDPWAFYESFLIQYQESEKVGEAIVLTVPGSERSYDLTGLKPGTEYTVSIYGVHNVYKDTNMRGLPCSAIFTT	0.95	1.03	0.97
P54AR4-83v2 K40C, NEM conjugate (designed binder, NEM on Cys 40, His-tagged) LPAPKNLVVSEVTEDSARLSWDDPWAFYESFLIQYQESECVGEAIVLTVPGSERSYDLTGLKPGTEYTVSIYGVHNVYKDTNMRGLPLSAIFTT	0.88	0.95	0.86
P54AR4-83v2 H75C, NEM conjugate (designed binder, NEM on Cys 75, His-tagged) LPAPKNLVVSEVTEDSARLSWDDPWAFYESFLIQYQESEKVGEAIVLTVPGSERSYDLTGLKPGTEYTVSIYGVCNVYKDTNMRGLPLSAIFTT	0.07	0.19	0.25
P54AR4-83v2 P87C, NEM conjugate (designed binder, NEM on Cys 87, His-tagged) LPAPKNLVVSEVTEDSARLSWDDPWAFYESFLIQYQESEKVGEAIVLTVPGSERSYDLTGLKPGTEYTVSIYGVHNVYKDTNMRGLCLSAIFTT	0.73	0.93	0.91
P54AR4-83v2 I45C, NEM conjugate (designed binder, NEM on Cys 45, His-tagged) LPAPKNLVVSEVTEDSARLSWDDPWAFYESFLIQYQESEKVGEACVLTVPGSERSYDLTGLKPGTEYTVSIYGVHNVYKDTNMRGLPLSAIFTT	0.91	1.04	0.93
P54AR4-83v2 K62C, NEM conjugate (designed binder, NEM on Cys 62, His-tagged) LPAPKNLVVSEVTEDSARLSWDDPWAFYESFLIQYQESEKVGEAIVLTVPGSERSYDLTGLCPGTEYTVSIYGVHNVYKDTNMRGLPLSAIFTT	0.64	0.73	0.61
P54AR4-83v2 N82C, NEM conjugate (designed binder, NEM on Cys 82, His-tagged) LPAPKNLVVSEVTEDSARLSWDDPWAFYESFLIQYQESEKVGEAIVLTVPGSERSYDLTGLKPGTEYTVSIYGVHNVYKDTCMRGLPLSAIFTT	0.56	0.97	0.96
P54AR4-83v2 K79C, NEM conjugate (designed binder, NEM on Cys 79, His-tagged) LPAPKNLVVSEVTEDSARLSWDDPWAFYESFLIQYQESEKVGEAIVLTVPGSERSYDLTGLKPGTEYTVSIYGVHNVYCDTNMRGLPLSAIFTT	0.9	0.99	0.93
P54AR4-83v2 P50C, NEM conjugate (designed binder, NEM on Cys 50, His-tagged) LPAPKNLVVSEVTEDSARLSWDDPWAFYESFLIQYQESEKVGEAIVLTVCGSERSYDLTGLKPGTEYTVSIYGVHNVYKDTNMRGLPLSAIFTT	0.91	1.05	0.97
P54AR4-83v2 R18C, NEM conjugate (designed binder, NEM on Cys 18, His-tagged) LPAPKNLVVSEVTEDSACLSWDDPWAFYESFLIQYQESEKVGEAIVLTVPGSERSYDLTGLKPGTEYTVSIYGVHNVYKDTNMRGLPLSAIFTT	0.86	1.05	0.94
P54AR4-83v2 N6C, NEM conjugate (designed binder, NEM on Cys 6, His-tagged) LPAPKCLVVSEVTEDSARLSWDDPWAFYESFLIQYQESEKVGEAIVLTVPGSERSYDLTGLKPGTEYTVSIYGVHNVYKDTNMRGLPLSAIFTT	0.76	1.01	0.89
P54AR4-83v2 N76C, NEM conjugate (designed binder, NEM on Cys 76, His-tagged) LPAPKNLVVSEVTEDSARLSWDDPWAFYESFLIQYQESEKVGEAIVLTVPGSERSYDLTGLKPGTEYTVSIYGVHCVYKDTNMRGLPLSAIFTT	0.75	0.97	0.91
P54AR4-83v2 Q34C, NEM conjugate (designed binder, NEM on Cys 34, His-tagged) LPAPKNLVVSEVTEDSARLSWDDPWAFYESFLICYQESEKVGEAIVLTVPGSERSYDLTGLKPGTEYTVSIYGVHNVYKDTNMRGLPLSAIFTT	0.89	1.03	0.94
P54AR4-83v2 P2C, NEM conjugate (designed binder, NEM on Cys 2, His-tagged) LCAPKNLVVSEVTEDSARLSWDDPWAFYESFLIQYQESEKVGEAIVLTVPGSERSYDLTGLKPGTEYTVSIYGVHNVYKDTNMRGLPLSAIFTT	0	0	0.01
P54AR4-83v2 P4C, NEM conjugate (designed binder, NEM on Cys 4, His-tagged) LPACKNLVVSEVTEDSARLSWDDPWAFYESFLIQYQESEKVGEAIVLTVPGSERSYDLTGLKPGTEYTVSIYGVHNVYKDTNMRGLPLSAIFTT	0.02	0.02	0.12
P54AR4-83v2 K5C, NEM conjugate (designed binder, NEM on Cys 5, His-tagged) LPAPCNLVVSEVTEDSARLSWDDPWAFYESFLIQYQESEKVGEAIVLTVPGSERSYDLTGLKPGTEYTVSIYGVHNVYKDTNMRGLPLSAIFTT	0.61	1.06	0.92
P54AR4-83v2 L32C, NEM conjugate (designed binder, NEM on Cys 32, His-tagged) LPAPKNLVVSEVTEDSARLSWDDPWAFYESFCIQYQESEKVGEAIVLTVPGSERSYDLTGLKPGTEYTVSIYGVHNVYKDTNMRGLPLSAIFTT	0.87	1.01	0.91
P54AR4-83v2 L86C, NEM conjugate (designed binder, NEM on Cys 86, His-tagged) LPAPKNLVVSEVTEDSARLSWDDPWAFYESFLIQYQESEKVGEAIVLTVPGSERSYDLTGLKPGTEYTVSIYGVHNVYKDTNMRGCPLSAIFTT	0.77	0.96	0.92
P54AR4-83v2 I91C, NEM conjugate (designed binder, NEM on Cys 91, His-tagged; also called 191C) LPAPKNLVVSEVTEDSARLSWDDPWAFYESFLIQYQESEKVGEAIVLTVPGSERSYDLTGLKPGTEYTVSIYGVHNVYKDTNMRGLPLSACFTT	0.9	1.01	1
P54AR4-83v2 M83C, NEM conjugate (designed binder, NEM on Cys 83, His-tagged) LPAPKNLVVSEVTEDSARLSWDDPWAFYESFLIQYQESEKVGEAIVLTVPGSERSYDLTGLKPGTEYTVSIYGVHNVYKDTNCRGLPLSAIFTT	0.07	0.04	0.24
P54AR4-83v2 P63C, NEM conjugate (designed binder, NEM on Cys 63, His-tagged) LPAPKNLVVSEVTEDSARLSWDDPWAFYESFLIQYQESEKVGEAIVLTVPGSERSYDLTGLKCGTEYTVSIYGVHNVYKDTNMRGLPLSAIFTT	0.95	1.02	0.92
P54AR4-83v2 P24C, NEM conjugate (designed binder, NEM on Cys 24, His-tagged) LPAPKNLVVSEVTEDSARLSWDDCWAFYESFLIQYQESEKVGEAIVLTVPGSERSYDLTGLKPGTEYTVSIYGVHNVYKDTNMRGLPLSAIFTT	0.45	0.85	0.83
